Laboratory results published in paper PMC2822742.

Biological target: RBPJκ in Raji cell extract (human (endogenous in Raji)) (UniProt Q06330)
Test: native gel or EMSA

UniProt Q06330, sequence (Q06330 whole entry): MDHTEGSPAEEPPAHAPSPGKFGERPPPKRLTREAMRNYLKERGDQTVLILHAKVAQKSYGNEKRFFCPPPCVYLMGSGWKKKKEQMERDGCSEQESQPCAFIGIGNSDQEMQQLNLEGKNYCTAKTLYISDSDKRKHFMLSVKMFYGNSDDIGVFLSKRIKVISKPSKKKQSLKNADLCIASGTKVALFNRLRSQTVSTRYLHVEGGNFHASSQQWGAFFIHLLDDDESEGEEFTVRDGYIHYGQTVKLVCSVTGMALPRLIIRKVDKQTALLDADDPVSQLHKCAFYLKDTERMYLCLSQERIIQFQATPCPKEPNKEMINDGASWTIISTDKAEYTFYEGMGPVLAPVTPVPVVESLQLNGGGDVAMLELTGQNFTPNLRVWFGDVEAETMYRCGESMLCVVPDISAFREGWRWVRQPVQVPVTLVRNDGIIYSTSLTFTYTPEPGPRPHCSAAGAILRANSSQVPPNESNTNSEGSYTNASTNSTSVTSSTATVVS

## EBNA2 in Raji cell extract (from UniProt P12978 1-487) (natural protein)
  decrease in EMSA signal intensity, AdOx-treated against untreated extract: 30 to 67%
